Source: patent publication US20220364173

Target: T1, Bst 2.0 DNA polymerase (UniProt P52026)
T1 sequence: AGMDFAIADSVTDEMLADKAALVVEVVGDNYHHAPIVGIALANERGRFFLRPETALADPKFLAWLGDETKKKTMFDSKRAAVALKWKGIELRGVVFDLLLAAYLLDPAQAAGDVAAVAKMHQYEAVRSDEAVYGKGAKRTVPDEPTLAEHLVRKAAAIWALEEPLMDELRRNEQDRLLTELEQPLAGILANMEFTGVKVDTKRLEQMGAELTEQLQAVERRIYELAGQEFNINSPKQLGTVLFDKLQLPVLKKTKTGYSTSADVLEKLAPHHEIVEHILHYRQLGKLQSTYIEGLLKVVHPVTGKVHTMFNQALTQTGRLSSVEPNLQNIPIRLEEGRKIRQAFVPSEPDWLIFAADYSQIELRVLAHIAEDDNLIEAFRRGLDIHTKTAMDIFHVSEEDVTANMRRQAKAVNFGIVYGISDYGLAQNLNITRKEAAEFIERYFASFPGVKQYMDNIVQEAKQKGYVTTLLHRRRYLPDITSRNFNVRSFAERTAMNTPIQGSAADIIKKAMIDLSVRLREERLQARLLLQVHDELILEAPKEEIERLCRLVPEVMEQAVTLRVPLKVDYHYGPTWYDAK
Conditions: N6-allyl-N6-methyladenosine at centre of NNANN, I2-cyclized; mutation rate on all DRACH motifs during reverse transcription; MgSO4, PEG 4000, 37 C

## UCGACGUNNANNGGCAUUGCU [NNam6ANN probe]
  activity: > 25%
